Some targets named below: HLA-B*18:01; HLA-B*40:01; HLA-B*40:02; HLA-B*44:02; HLA-B*44:03; HLA-B*45:01; HLA-A*68:02.
Assay in all cases: IEDB peptide-MHC binding, purified MHC/competitive/radioactivity; filed as Kd, often an IC50 or EC50 that approximates it; ≥ and ≤ were set here for values at or beyond the usual limits of such assays
The target in another assay is HLA-A*26:01. Particulars: source organism: Dengue virus 2 Jamaica/1409/1983.
In a further assay the target is HLA-A*02:01. The settings on record: source organism: Trypanosoma cruzi.
The next assay concerns the target HLA-A*02:02. The settings on record: source organism: Trypanosoma cruzi.
The target in another assay is HLA-A*02:03. The settings on record: source organism: Trypanosoma cruzi.
The target of a further assay is HLA-A*02:06. Particulars: source organism: Trypanosoma cruzi.
The mark [1] stands for this setting: source organism: SARS coronavirus Tor2.
Where [2] appears, read: source organism: Mammarenavirus mopeiaense.
[3] abbreviates: source organism: Lymphocytic choriomeningitis virus (strain Armstrong).
Setting [4] is: source organism: Mammarenavirus brazilense.
Setting [5] is: source organism: Mammarenavirus guanaritoense.
Where [6] appears, read: source organism: Lymphocytic choriomeningitis virus (strain WE).
Setting [7] is: source organism: Mammarenavirus choriomeningitidis.

For orientation: Kd means a measure of binding affinity in units of concentration.

As for REVKTIKVF, the Kd with HLA-B*18:01 (setting [1]) stood at 4 µM; with HLA-B*40:01 (setting [1]) it was 0.219 µM; with HLA-B*40:02 (setting [1]) it was 0.0543 µM; with HLA-B*44:02 (setting [1]), 0.103 µM; in the assay with HLA-B*44:03 (setting [1]) it was 0.0878 µM; with HLA-B*45:01 (setting [1]), 6.75 µM.
For YEGNSPFHPL, the Kd in the assay with HLA-B*18:01 (setting [1]) was 12.3 µM; with HLA-B*40:01 (setting [1]) it was 0.0462 µM; in the assay with HLA-B*40:02 (setting [1]), 0.0122 µM; with HLA-B*44:02 (setting [1]) it was 8.1 µM; with HLA-B*44:03 (setting [1]) it was 16.8 µM; with HLA-B*45:01 (setting [1]) it was not below 42.7 µM.
Regarding AEVQIDRLI, the Kd with HLA-B*18:01 (setting [1]) was not below 77.5 µM; with HLA-B*40:01 (setting [1]), 10.9 µM; with HLA-B*40:02 (setting [1]), 0.0924 µM; in the assay with HLA-B*44:02 (setting [1]), 0.0901 µM; with HLA-B*44:03 (setting [1]) it was 0.094 µM; in the assay with HLA-B*45:01 (setting [1]), 0.985 µM.
With PELLNNQFGT, the Kd with HLA-B*18:01 (setting [2]) is 16.2 µM; with HLA-B*40:01 (setting [2]), not below 69.5 µM; with HLA-B*40:02 (setting [2]) it was not below 27.2 µM; with HLA-B*44:02 (setting [2]), not below 70.2 µM; in the assay with HLA-B*44:03 (setting [2]), not below 69.7 µM; with HLA-B*45:01 (setting [2]), not below 70 µM.
In the case of REFVATTRTL, the Kd with HLA-B*18:01 (setting [3]) was 14.1 µM; with HLA-B*40:01 (setting [3]) it was 8.64 µM; with HLA-B*40:02 (setting [3]), 0.0699 µM; with HLA-B*44:02 (setting [3]), 3.18 µM; with HLA-B*44:03 (setting [3]), 7.56 µM; with HLA-B*45:01 (setting [3]), not below 30.5 µM.
Turning to SDHLLSEML, the Kd in the assay with HLA-B*18:01 (setting [4]) was not below 77.5 µM; with HLA-B*40:01 (setting [4]) it was 5.29 µM; with HLA-B*40:02 (setting [4]) it was 2.26 µM; with HLA-B*44:02 (setting [4]), not below 26.9 µM; in the assay with HLA-B*44:03 (setting [4]) it was not below 78.1 µM; in the assay with HLA-B*45:01 (setting [4]), not below 77.7 µM.
Consider IDYDCVSFCY, for which the Kd with HLA-B*18:01 (setting [1]) is 3 µM; in the assay with HLA-B*40:01 (setting [1]), 10.5 µM; with HLA-B*40:02 (setting [1]) it was not below 38.5 µM; in the assay with HLA-B*44:02 (setting [1]), 1.55 µM; in the assay with HLA-B*44:03 (setting [1]), 0.759 µM; in the assay with HLA-B*45:01 (setting [1]) it was 5.8 µM.
Consider SDYDYYRYNL, for which the Kd is not below 70.5 µM in the assay with HLA-B*18:01 (setting [1]); not below 69.6 µM in the assay with HLA-B*40:01 (setting [1]); not below 51.6 µM with HLA-B*40:02 (setting [1]); 12.4 µM with HLA-B*44:02 (setting [1]); 9.73 µM with HLA-B*44:03 (setting [1]); not below 25 µM with HLA-B*45:01 (setting [1]).
Consider YDYYRYNLPT, for which the Kd in the assay with HLA-B*18:01 (setting [1]) is not below 70.5 µM; with HLA-B*40:01 (setting [1]) it was not below 69.6 µM; with HLA-B*40:02 (setting [1]), not below 36.5 µM; in the assay with HLA-B*44:02 (setting [1]) it was not below 24.8 µM; with HLA-B*44:03 (setting [1]), not below 20.9 µM; with HLA-B*45:01 (setting [1]) it was 15.1 µM.
As to NEYRQYLDAY, the Kd with HLA-B*18:01 (setting [1]) was 0.253 µM; in the assay with HLA-B*40:01 (setting [1]), not below 21.9 µM; with HLA-B*40:02 (setting [1]) it was 0.632 µM; with HLA-B*44:02 (setting [1]) it was 1.99 µM; with HLA-B*44:03 (setting [1]), 0.0832 µM; with HLA-B*45:01 (setting [1]), 4.93 µM.
Turning to PDFELLLSL, the Kd was 0.701 µM in the assay with HLA-B*18:01 (setting [5]); 14.6 µM in the assay with HLA-B*40:01 (setting [5]); 0.00218 µM with HLA-B*40:02 (setting [5]); 7.83 µM in the assay with HLA-B*44:02 (setting [5]); not below 35.8 µM in the assay with HLA-B*44:03 (setting [5]); not below 38.1 µM in the assay with HLA-B*45:01 (setting [5]).
For RERVNINIVG, the Kd is not below 70.5 µM with HLA-B*18:01 (setting [1]); 4.91 µM in the assay with HLA-B*40:01 (setting [1]); 0.143 µM with HLA-B*40:02 (setting [1]); 7.9 µM with HLA-B*44:02 (setting [1]); 6.74 µM with HLA-B*44:03 (setting [1]); 1.63 µM with HLA-B*45:01 (setting [1]).
For the sequence KEPVESCPL, the Kd was not below 77.5 µM in the assay with HLA-B*18:01 (setting [6]); 1.92 µM with HLA-B*40:01 (setting [6]); 0.155 µM with HLA-B*40:02 (setting [6]); not below 77.9 µM in the assay with HLA-B*44:02 (setting [6]); not below 78.1 µM with HLA-B*44:03 (setting [6]); not below 58.4 µM with HLA-B*45:01 (setting [6]).
Take EDQFLPFMS: the Kd with HLA-B*18:01 (setting [7]) is not below 77.5 µM; with HLA-B*40:01 (setting [7]) it was 5.67 µM; in the assay with HLA-B*40:02 (setting [7]), 7.96 µM; with HLA-B*44:02 (setting [7]) it was 17.4 µM; with HLA-B*44:03 (setting [7]), not below 39.6 µM; in the assay with HLA-B*45:01 (setting [7]), not below 23.9 µM.
On to VEFLKDAWEI, for which the Kd worked out at 3.72 µM with HLA-B*18:01 (setting [1]); 0.965 µM with HLA-B*40:01 (setting [1]); 0.0774 µM with HLA-B*40:02 (setting [1]); 0.641 µM with HLA-B*44:02 (setting [1]); 0.614 µM in the assay with HLA-B*44:03 (setting [1]); 4 µM with HLA-B*45:01 (setting [1]).
On to SEYDYVIFT, for which the Kd in the assay with HLA-B*18:01 (setting [1]) was determined as 3.27 µM; in the assay with HLA-B*40:01 (setting [1]) it was 0.998 µM; with HLA-B*40:02 (setting [1]) it was 0.034 µM; with HLA-B*44:02 (setting [1]) it was 0.125 µM; with HLA-B*44:03 (setting [1]), 0.0251 µM; with HLA-B*45:01 (setting [1]), 0.0114 µM.
Consider ETACLGKSYA, for which the Kd with HLA-A*26:01 came to 0.163 µM; with HLA-A*68:02 (source organism: Dengue virus 2 Jamaica/1409/1983), 0.00748 µM.
With LLGLWGLAAL, the Kd in the assay with HLA-A*02:01 is 0.0507 µM; with HLA-A*02:02 it was 0.004 µM; with HLA-A*02:03 it was 0.00938 µM; with HLA-A*02:06, 0.144 µM; in the assay with HLA-A*68:02 (source organism: Trypanosoma cruzi), 5.82 µM.

For the origin of these results see the Immune Epitope Database (IEDB).
